{
  "source": "the DeepSol protein solubility set",
  "data": [
    {"assay": "soluble on expression in E. coli; label from the status in PepcDB or PDB records", "values": [
      {"sequence": "MSLKGLTVGFLPKAVNNPYFTSADKGGEKALEELGSSYKEVGPSSATDTSGQVSYVNTLTQQQVDAMAVSAQDPGALCTALKQAMKNGIEVVTYDSDTKTGCRNAFVSQASAEDLGRTEVQLLAEQIGYKGEIAILSAAQTATNQNTWIGFMKDELKDPKYKNVKLVKVAYGNDDAQQSFQQTQGLLQEHPKLAGIISPTTVGIKAAAQYLSGSKYKGKVKLTGLGTPNDMRKYVKNGTVEGFELWDPAKLGELAARTAVALSSGQISGKEGETFKAGDMGSYTIGKDGEGHHHHHH", "soluble on expression in E. coli": "soluble"},
      {"sequence": "MSLKGTDRIKVLHMSDFHIDPRYATGSEGNCTSGLCCRRGNPVESLNSNYTVSVPAPRFGYFLCDTPWALGAAAVEAIPVLTGTDEDDAFNMTIFTGDMVSHDPYYELSRDYIEYTETALYDLWKQTLNPTSPLYAAIGNHDSYQQAFDAPSSLPGKLRKQSSWNYEHLAGLWESEGWIDGEVAQKVKTHYGAYSIQHATNLKIITINTDLWYRANIFAYINSTHPDNFGFLKFLAEELQEAEDCNSRAYIVGHVLSGYDGTNPLPGPTDIFYQIIDRYSHVIAGLFWGHTHEDQHMIYYANNGTKMSAETAQNVGWIGPSITPLTDLNSGFRLYEVDAETWDILDAHTWYSNVSTYSSLDGQLEVGPSYVYEYNTRQAYGGNISWPDNAPLNATWWHLVSQDMENDGGALVELYNAHQGKMSTLSPNCTSAECIEAKVCYLRSGSGTLALDNCKTGYGSVQEGHHHHHH", "soluble on expression in E. coli": "not soluble"},
      {"sequence": "MSLKIAVIGCGAMGSIYAAKLAAAGEQVLAVDRHRPSVERINRDGLRVTGPGCDQVVPLRASTGAVDETMDLVVLAVKAADVEAAARQALPMLGPDTAVLTIQNGLGSAETVAGVVGAQRVAVGIASGFGASRVAPGHVHHNAMRAMRFGPYSSLPHARVESIARTWAHAGFDAAAVTDIAAMQWEKLICNVAYSAPCALTGMTVGQVMDDAEMGPVSRAAATEAWSVARASGVAIAVADAVEHVRAFGAQMPDAKPSALLDHEARRVSEIDVINGAVPRQGARVGVDAPVNATLTAVVKSIERRWREGHHHHHH", "soluble on expression in E. coli": "not soluble"},
      {"sequence": "MSLKIKICGLSTKEAVDTAVESGVTHLGFILSPSKRQVAPEKILQITNDVPKTVKKVGVFVDEPIDFVKKAIQVAQLDLVQLHGNEDMNYINQLDISVIKAIRPDQEFKEYEDVILLFDSPQAGSGQAFDWDSLVTSGLKNKFFIAGGLNPENVAAAIQHFPNAYGVDVSSGVETDGIKNLTKIKNFVQNASLASSKQLFIEFLRITKKLNENKIIPYLMGSLAVEQIINFPTNPDDIDIQLKTSDFENFEQLTSLMEKLGYQLIDLHEHKFEKASIHVGFASVETLKNYAGVDYLTIQQERMENGEKYHLPNVEQSLKIYEAAKRDEWRGGKQKDSFIFDELIKEQKRNDNEGHHHHHH", "soluble on expression in E. coli": "soluble"},
      {"sequence": "MSLKIMGFYSQVILPRLLDWSLSDPTLATYRQELLTDVTGEVLEIGFGTGLNLAYYPSHIHKITTVDVNPGMNTIAQKRIDDSGIKVQQLLLSGENLPMADNTFDSVVSTWTLCSIANVEQALQEVYRVLKPGGKFFFLEHGLSNKPNVQVWQNRLTPIQKVLADGCHLNRNIQQLVEQSFDHVELKRFTPENFPDLMAHFYKGCATKKSIEGHHHHHH", "soluble on expression in E. coli": "not soluble"},
      {"sequence": "MSLKISLENVGCASQIGKRKENEDRFDFAQLTDEVLYFAVYDGHGGPAAADFCHTHMEKCIMDLLPKEKNLETLLTLAFLEIDKAFSSHARLSADATLLTSGTTATVALLRDGIELVVASVGDSRAILCRKGKPMKLTIDHTPERKDEKERIKKCGGFVAWNSLGQPHVNGRLAMTRSIGDLDLKTSGVIAEPETKRIKLHHADDSFLVLTTDGINFMVNSQEICDFVNQCHDPNEAAHAVTEQAIQYGTEDNSTAVVVPFGAWGKYKNSEINFSFSRSFASSGRWAEGHHHHHH", "soluble on expression in E. coli": "soluble"},
      {"sequence": "MSLKISSMFTPIRIGSMTVPNRFVVPPMGNNFANTDGTLSETSKAYYLERALGGFGLITIESSVVDKKAKGGPRKPCLYDDSTIDSFKNVIDACHDAGSKVSIQLQHAGSEGNEKVAGHPLKAASAIPASNGRNTPLAITTEEIYELIESYGDAALRAQKAGADAVEVHCAHGYLVSSFISQRTNKRVDEFGGCFENRMRLPRLIIENIRKKVGNSLAILCRINSTDDVPGGIDVHDSSVIAAYLEDCGIDGLHVSRSIHIHDEYMWAPTTLHAGFSAELVTEIKKAVSIPVITVGRYTEPQFAELMVRQGRCDLVAFGRQSLADPEMPNKAKNGKLDEMIPCIACLQGCVPNMFQGKPIACLANPILGHEAELKPAEISKEVLVVGGGVGGMLAAWVCAKRGHNVTLVEKSEVLGGQMRLAAYPPGKGDITNLVRSYISKCNQYGVKICTNTEATVELIKEKSPDVVIIATGATPLVLPIPGINDSGLIHAVDLLDGKKSCGKKVLVVGGGMVGCEVAAFLGEQEHEVTVIELREEVGADVISEHRKFLMNDFENYNIHTITGAKVSKFYDDGVDYLLTDGTEHDLKGFDSVVLAMGSRNYDPLSEVIKEVVKETYIVGDAVKARRALDATKEAFEVALNIEGHHHHHH", "soluble on expression in E. coli": "soluble"},
      {"sequence": "MSLKITEIETLRPEEFPNLLWVLVHTDEGITGLGETFYGACSAEAYIHEWAANRLIGEDPLQIDRHAKRLSGYLGFRSAGAEMRGNSALDIALWDIFGKATGQPIYQLLGGKCRDTIRTYNTCAGPHYVRTAKQQSVANWGLANSVSARYDDLNAFLHRADELALDLLDSGITAMKIWPFDPYAEASDGYYISKSDLKRALEPFEKIRRAVGDKMDVMVEFHSLWNLPPALQIAEALREYETFWHEDPIRMDSLSSLKRYAERSLAPVCASETLATRWGFRDLLETNAAGIVMLDISWCGGLSEARKIASMAEAWHLPVAPHDCTGPVVLTASTHLSLNAPNALVQESVRAFYDGWYRDLVTALPTVKDGHITVPDGPGLGLELMPDIRERLTIAVRNTSDCEGHHHHHH", "soluble on expression in E. coli": "soluble"},
      {"sequence": "MSLKITGNTILITGGGSGIGRALAEAFHQAGNRVIISGRRQAVLDEVTAANPGMASMVMDAGDAEGIRAFAEALVKAHPTLNAVINNAGIMRPEEIAAAPDYLDTAEETIATNLLAPIRLTAALLPHFLKQPAATVLTVSSGLAFVPMVLTPTYSATKSAIHAYSVALREQLKETSVEVIEIVPPYVQTTLMGEGQANDERAMPLEAFISEVMDILKNRPDEKEVVVERCKPLRFAAQNGNFDQVFAMINHMHEGHHHHHH", "soluble on expression in E. coli": "soluble"},
      {"sequence": "MSLKIVDATVLVTCPGRNFVTLRITTDEGVTGLGDATLNGREQAVVAYLREHVVPLLLGTDPHRIEDTWQSLYRGAYWRRGPVTMAAIAAVDVALWDIKAKVANLPLYQLLGGASRERVRTYGHANGRDIPELLDSVRARQAEGYQAIRVQTGVPGLRKVYGVHTGEAIAHNPTRLDQRAVPVVEDWDTPAYLRHLPTVLEAVRNEFGPELPLLHDAHHRLTPLQAAKLGKDVERYDLFWLEDCTPAENQEAFRLVRHHTTTPLAVGEVFNTVFDYQTLIAEQLIDYARSAVTHFGGVSALRKLFDFAAQHQVKSAIHGPEDISPVGMAAAIHLDLAVHNFGIQEYSGHTDATNEVFRHAYTFTDGHLHPGEAPGIGVDYDEELAAAHPYDPAYLPVNRLADGTVHDWEGHHHHHH", "soluble on expression in E. coli": "not soluble"},
      {"sequence": "MSLKIVRILEKDLPITSPGANAVVDFAGLTTSAVAIVTDAFRDGKPLVGYGFGSIGRWSVGGMLRERFIPRILAVEPASLQDETGNIDPFACWNAAMRNEKPGGHGDRATALGALDMALWDLRAKADGVPLYRLLADRYRDGQADEDVAVYAAGGYYQPGSNYRSLQDELKGYIDRGYNEVKIKIGGAPLAEDMRRIEAAIAVLGDGARLAVDANGRFDLETALAYGRAMSDYGLRWYEEPGDPLDFRLMAVLAEHYDGPLATGENLFSSQDARNLLRYGGMRAERDFVQFDCGLAYGLPDYLKVLDIMRRHGWSPRRLHPHGGHQMSLHLAAGLGLGGNESYPGVFQPLGGFADCSKVENGRVRLPDAPGVGLELKSELKTWLDEAFEEGHHHHHH", "soluble on expression in E. coli": "not soluble"},
      {"sequence": "MSLKKATLKDIAEYFGVSISTVSRALSGKPGVSSELREKILEKAREIGYTPNLMALGLKKGNTRTVGVLIPELSANFFADIVSSIEKSLFHLGYRLILCSTDDDPVKEREHLQLLLDQKVEGILSAPVNVKENKDIYNSIINHFKIPVVFFDRLVEGVDSDFVISDNREGMEILVNYLVKHGHKKIGLIHPLRGSFTGEERLKGFLLFKDSIEIREEWIRDGRSSEQGGYESFLRIMTSQERPTAIVIGNNLMTLGVLKAAKELNIKIPEDISLVSFDDAYWNEIFDPPITCVRQDPQQIGLIAATILLDRMKNRKKPSPRMQVVLKVKFVERSSVRTIKTLKDEGHHHHHH", "soluble on expression in E. coli": "soluble"}
    ]}
  ]
}
